Laboratory results reported in IntAct's records for PubMed 31515488.

B1: Inactive peptidyl-prolyl cis-trans isomerase FKBP6 (Homo sapiens), O75344 (parent)
chain: MGGSALNQGVLEGDDAPGQSLYERLSQRMLDISGDRGVLKDVIREGAGDLVAPDASVLVKYSGYLEHMDRPFDSNYFRKTPRLMKLGEDITLWGMELGLLSMRRGELARFLFKPNYAYGTLGCPPLIPPNTTVLFEIELLDFLDCAESDKFCALSAEQQDQFPLQKVLKVAATEREFGNYLFRQNRFYDAKVRYKRALLLLRRRSAPPEEQHLVEAAKLPVLLNLSFTYLKLDRPTIALCYGEQALIIDQKNAKALFRCGQACLLLTEYQKARDFLVRAQKEQPFNHDINNELKKLASCYRDYVDKEKEMWHRMFAPCGDGSTAGES
partner: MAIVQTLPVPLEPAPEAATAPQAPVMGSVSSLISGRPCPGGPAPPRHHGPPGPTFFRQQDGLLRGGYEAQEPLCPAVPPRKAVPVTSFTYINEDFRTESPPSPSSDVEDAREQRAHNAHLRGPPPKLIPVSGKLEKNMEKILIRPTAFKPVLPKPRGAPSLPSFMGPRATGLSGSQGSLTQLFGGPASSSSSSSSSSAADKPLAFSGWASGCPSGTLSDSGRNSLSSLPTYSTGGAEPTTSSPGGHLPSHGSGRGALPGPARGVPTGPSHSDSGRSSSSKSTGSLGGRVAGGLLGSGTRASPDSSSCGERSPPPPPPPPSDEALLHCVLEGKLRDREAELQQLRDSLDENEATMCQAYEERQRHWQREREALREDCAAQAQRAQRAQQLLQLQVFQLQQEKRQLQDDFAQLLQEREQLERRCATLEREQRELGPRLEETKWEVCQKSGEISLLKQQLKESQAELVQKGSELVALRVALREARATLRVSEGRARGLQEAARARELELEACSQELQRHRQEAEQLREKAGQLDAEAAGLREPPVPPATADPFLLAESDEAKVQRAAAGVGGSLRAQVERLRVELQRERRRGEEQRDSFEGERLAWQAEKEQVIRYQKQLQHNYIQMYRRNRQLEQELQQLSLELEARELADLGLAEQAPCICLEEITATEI
B2: Retinoic acid receptor RXR-gamma (Homo sapiens), P48443 (parent)
chain: MYGNYSHFMKFPAGYGGSPGHTGSTSMSPSAALSTGKPMDSHPSYTDTPVSAPRTLSAVGTPLNALGSPYRVITSAMGPPSGALAAPPGINLVAPPSSQLNVVNSVSSSEDIKPLPGLPGIGNMNYPSTSPGSLVKHICAICGDRSSGKHYGVYSCEGCKGFFKRTIRKDLIYTCRDNKDCLIDKRQRNRCQYCRYQKCLVMGMKREAVQEERQRSRERAESEAECATSGHEDMPVERILEAELAVEPKTESYGDMNMENSTNDPVTNICHAADKQLFTLVEWAKRIPHFSDLTLEDQVILLRAGWNELLIASFSHRSVSVQDGILLATGLHVHRSSAHSAGVGSIFDRVLTELVSKMKDMQMDKSELGCLRAIVLFNPDAKGLSNPSEVETLREKVYATLEAYTKQKYPEQPGRFAKLLLRLPALRSIGLKCLEHLFFFKLIGDTPIDTFLMEMLETPLQIT
partner: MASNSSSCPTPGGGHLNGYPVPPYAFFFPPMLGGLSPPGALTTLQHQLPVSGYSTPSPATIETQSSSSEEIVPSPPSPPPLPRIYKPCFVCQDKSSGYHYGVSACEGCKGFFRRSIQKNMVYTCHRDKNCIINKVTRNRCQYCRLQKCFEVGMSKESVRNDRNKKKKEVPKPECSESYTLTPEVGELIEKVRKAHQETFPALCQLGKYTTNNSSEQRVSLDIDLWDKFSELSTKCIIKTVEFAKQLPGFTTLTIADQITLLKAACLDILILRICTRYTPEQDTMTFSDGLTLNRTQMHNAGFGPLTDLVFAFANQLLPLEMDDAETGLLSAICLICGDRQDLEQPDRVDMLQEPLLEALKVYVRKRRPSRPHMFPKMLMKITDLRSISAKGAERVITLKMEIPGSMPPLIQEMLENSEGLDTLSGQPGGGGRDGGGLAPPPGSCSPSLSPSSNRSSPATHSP
B3: BRCA1-A complex subunit RAP80 (Homo sapiens), Q96RL1-2 (parent)
chain: MPRRKKKVKEVSESRNLEKKDVETTSSVSVKRKRRLEDAFIVISDSDGEEPKEENGLQKTKTKQSNRAKCLAKRKIAQMTEEEQFALALKMSEQEAREVNSQEEEEEELLRKAIAESLNSCRPSDASATRSRPLATGPSSQSHQEKTTDSGLTEGIWQLVPPSLFKGSHISQGNEAEEREEPWDHTEKTEEEPVSGSSGSWDQSSQPVFENVNVKSFDRCTGHSAEHTQCGKPQSSQGIVEETSEEGNSVPASQSVAALTSKRSLVLMPESSAEEITVCPETQLSSSETFDLEREVSPGSRDILDGVRIIMADKEVGNKEDAEKEVAISTFSSSNQVSCPLCDQCFPPTKIERHAMYCNGLMEEDTVLTRRQKEAKTKSDSGTAAQTSLDIDKNEKCYLCKSLVPFREYQCHVDSCLQLAKADQGDGPEGSGRACSTVEGKWQQRLKNPKEKGHSEGRLLSFLEQSEHKTSDADIKSSETGAFRVPSPGMEEAGCSREMQSSFTRRDLNESPVKSFVSISEATDCLVDFKKQVTVQPGSRTRTKAGRGRRRKF
partner: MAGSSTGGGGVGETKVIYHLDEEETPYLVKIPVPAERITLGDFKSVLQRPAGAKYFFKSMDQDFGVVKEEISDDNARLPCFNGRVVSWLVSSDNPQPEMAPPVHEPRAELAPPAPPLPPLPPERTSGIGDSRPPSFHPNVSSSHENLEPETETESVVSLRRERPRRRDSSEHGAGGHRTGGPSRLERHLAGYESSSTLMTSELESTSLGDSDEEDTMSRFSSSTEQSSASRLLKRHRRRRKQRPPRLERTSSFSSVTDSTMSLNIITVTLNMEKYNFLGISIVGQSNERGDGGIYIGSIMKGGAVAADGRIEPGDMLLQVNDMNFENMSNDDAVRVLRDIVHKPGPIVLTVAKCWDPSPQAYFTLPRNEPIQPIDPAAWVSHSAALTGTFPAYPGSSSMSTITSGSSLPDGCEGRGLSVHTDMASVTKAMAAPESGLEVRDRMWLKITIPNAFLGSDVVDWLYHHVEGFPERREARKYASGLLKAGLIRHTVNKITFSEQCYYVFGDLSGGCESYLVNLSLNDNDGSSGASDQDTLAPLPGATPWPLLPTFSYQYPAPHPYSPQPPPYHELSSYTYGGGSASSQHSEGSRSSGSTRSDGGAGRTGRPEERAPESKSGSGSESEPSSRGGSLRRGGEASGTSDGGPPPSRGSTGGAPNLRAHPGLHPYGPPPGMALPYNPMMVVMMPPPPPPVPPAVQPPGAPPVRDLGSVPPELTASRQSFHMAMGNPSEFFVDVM
B4: Four and a half LIM domains protein 2 (Homo sapiens), Q14192 (parent)
chain: MTERFDCHHCNESLFGKKYILREESPYCVVCFETLFANTCEECGKPIGCDCKDLSYKDRHWHEACFHCSQCRNSLVDKPFAAKEDQLLCTDCYSNEYSSKCQECKKTIMPGTRKMEYKGSSWHETCFICHRCQQPIGTKSFIPKDNQNFCVPCYEKQHAMQCVQCKKPITTGGVTYREQPWHKECFVCTACRKQLSGQRFTARDDFAYCLNCFCDLYAKKCAGCTNPISGLGGTKYISFEERQWHNDCFNCKKCSLSLVGRGFLTERDDILCPDCGKDI
partner: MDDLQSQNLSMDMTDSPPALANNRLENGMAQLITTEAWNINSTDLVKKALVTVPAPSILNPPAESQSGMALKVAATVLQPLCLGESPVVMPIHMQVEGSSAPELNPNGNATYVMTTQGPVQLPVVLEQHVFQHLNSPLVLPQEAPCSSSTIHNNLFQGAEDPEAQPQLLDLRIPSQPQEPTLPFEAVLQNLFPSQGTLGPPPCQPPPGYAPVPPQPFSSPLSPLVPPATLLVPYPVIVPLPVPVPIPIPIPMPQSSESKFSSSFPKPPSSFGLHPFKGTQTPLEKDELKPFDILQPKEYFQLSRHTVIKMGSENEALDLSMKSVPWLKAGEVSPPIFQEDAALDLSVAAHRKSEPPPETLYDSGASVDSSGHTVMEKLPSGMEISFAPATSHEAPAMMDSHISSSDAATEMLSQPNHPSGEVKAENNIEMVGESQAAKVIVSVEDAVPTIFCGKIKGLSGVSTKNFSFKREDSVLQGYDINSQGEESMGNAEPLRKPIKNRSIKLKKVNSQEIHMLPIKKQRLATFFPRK
B5: G2/M phase-specific E3 ubiquitin-protein ligase (Homo sapiens), Q7L622 (parent)
chain: MNESKPGDSQNLACVFCRKHDDCPNKYGEKKTKEKWNLTVHYYCLLMSSGIWQRGKEEEGVYGFLIEDIRKEVNRASKLKCCVCKKNGASIGCVAPRCKRSYHFPCGLQRECIFQFTGNFASFCWDHRPVQIITSNNYRESLPCTICLEFIEPIPSYNILRSPCCKNAWFHRDCLQVQAINAGVFFFRCTICNNSDIFQKEMLRMGIHIPEKDASWELEENAYQELLQHYERCDVRRCRCKEGRDYNAPDSKWEIKRCQCCGSSGTHLACSSLRSWEQNWECLECRGIIYNSGEFQKAKKHVLPNSNNVGITDCLLEESSPKLPRQSPGSQSKDLLRQGSKFRRNVSTLLIELGFQIKKKTKRLYINKANIWNSALDAFRNRNFNPSYAIEVAYVIENDNFGSEHPGSKQEFLSLLMQHLENSSLFEGSLSKNLSLNSQALKENLYYEAGKMLAISLVHGGPSPGFFSKTLFNCLVYGPENTQPILDDVSDFDVAQIIIRINTATTVADLKSIINECYNYLELIGCLRLITTLSDKYMLVKDILGYHVIQRVHTPFESFKQGLKTLGVLEKIQAYPEAFCSILCHKPESLSAKILSELFTVHTLPDVKALGFWNSYLQAVEDGKSTTTMEDILIFATGCSSIPPAGFKPTPSIECLHVDFPVGNKCNNCLAIPITNTYKEFQENMDFTIRNTLRLEKEESSHYIGH
partner: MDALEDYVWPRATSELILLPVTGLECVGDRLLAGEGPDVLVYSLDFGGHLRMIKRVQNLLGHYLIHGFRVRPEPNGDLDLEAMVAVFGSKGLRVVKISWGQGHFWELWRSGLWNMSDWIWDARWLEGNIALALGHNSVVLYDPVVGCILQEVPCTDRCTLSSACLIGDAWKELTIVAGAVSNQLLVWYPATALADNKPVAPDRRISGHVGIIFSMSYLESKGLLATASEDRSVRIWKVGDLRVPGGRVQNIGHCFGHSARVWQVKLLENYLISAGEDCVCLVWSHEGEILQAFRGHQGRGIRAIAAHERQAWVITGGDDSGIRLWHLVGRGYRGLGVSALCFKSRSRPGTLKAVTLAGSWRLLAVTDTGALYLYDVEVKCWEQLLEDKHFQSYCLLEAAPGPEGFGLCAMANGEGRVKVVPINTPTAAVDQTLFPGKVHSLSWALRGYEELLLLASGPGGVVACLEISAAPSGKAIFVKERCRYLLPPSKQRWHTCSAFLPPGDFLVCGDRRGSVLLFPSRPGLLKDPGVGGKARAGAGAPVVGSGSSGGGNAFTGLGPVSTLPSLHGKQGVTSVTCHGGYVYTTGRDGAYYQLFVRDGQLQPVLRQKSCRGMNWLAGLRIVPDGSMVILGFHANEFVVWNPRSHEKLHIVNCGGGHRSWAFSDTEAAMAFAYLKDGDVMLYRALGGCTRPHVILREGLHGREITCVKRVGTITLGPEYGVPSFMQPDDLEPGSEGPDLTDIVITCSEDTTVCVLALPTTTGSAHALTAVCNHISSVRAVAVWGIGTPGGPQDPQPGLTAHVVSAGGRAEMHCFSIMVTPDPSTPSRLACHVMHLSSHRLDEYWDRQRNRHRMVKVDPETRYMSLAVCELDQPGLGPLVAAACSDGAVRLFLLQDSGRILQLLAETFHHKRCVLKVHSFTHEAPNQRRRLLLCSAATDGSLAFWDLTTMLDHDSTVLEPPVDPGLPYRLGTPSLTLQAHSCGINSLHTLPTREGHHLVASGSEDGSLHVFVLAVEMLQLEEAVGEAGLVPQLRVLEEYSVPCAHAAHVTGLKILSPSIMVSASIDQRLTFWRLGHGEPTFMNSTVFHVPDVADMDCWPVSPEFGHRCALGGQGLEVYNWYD

Variants of: B1
Conditions: with lzts2_human LZTS2, Q9BRK4

Row | effect of a mutation on the interaction | Variant
1 | with no effect | H287N

Variants of: B2
Conditions: with rara_human RARA

Row | effect of a mutation on the interaction | Variant
2 | with no effect | A86V

Variants of: B3
Conditions: with dvl2_human DVL2, O14641

Row | effect of a mutation on the interaction | Variant
3 | with no effect | G48E

Variants of: B4
Conditions: with rai2_human RAI2, Q9Y5P3

Row | effect of a mutation on the interaction | Variant
4 | with no effect | A37S
5 | with no effect | N95K

Variants of: B5
Conditions: with wdr6_human WDR6, Q9NNW5

Row | effect of a mutation on the interaction | Variant
6 | with no effect | P328L
